Experimental data from PMC11077055, “Structure-functional characterization of Lactococcus AbiA phage defense system” (Nucleic Acids Research, 2024).
Numbering of substitutions follows the chain as printed. Names and notes keep the numbering of the source.

T1: AbiA (Lactococcus lactis, UniProt Q48596)
T1 construct: full-length, 628 residues, N-terminal His6-tag kept (no SUMO), made in E. coli BL21 Star; plasmid-encoded in the source; homodimer (148 kDa theoretical); co-purifies with covalently attached ssDNA
T1 sequence (Q48596 1-628): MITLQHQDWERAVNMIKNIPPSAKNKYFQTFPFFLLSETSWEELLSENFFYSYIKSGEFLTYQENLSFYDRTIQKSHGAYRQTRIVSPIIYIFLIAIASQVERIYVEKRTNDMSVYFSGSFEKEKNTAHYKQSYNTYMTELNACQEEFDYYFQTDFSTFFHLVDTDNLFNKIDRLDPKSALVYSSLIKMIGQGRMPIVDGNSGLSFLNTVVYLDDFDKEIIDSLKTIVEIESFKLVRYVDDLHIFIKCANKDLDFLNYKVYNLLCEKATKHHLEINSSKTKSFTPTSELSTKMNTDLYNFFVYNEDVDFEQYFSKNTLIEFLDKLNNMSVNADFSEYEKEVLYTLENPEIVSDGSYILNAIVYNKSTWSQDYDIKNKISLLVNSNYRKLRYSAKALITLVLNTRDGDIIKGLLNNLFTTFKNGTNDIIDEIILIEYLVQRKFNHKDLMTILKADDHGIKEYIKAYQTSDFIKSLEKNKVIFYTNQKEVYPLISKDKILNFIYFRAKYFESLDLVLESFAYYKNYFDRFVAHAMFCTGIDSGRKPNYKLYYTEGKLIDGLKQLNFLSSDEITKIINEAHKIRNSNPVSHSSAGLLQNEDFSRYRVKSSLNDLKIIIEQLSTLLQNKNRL

B1: His6-SUMO-AbiA fusion protein (full-length AbiA from L. lactis with uncleaved SUMO tag) (enzyme, UniProt Q48596 1-628, looked up)
chain: T1 sequence (Q48596 1-628)
modifications: co-purified ssDNA; the paper shows covalent attachment, with priming at Tyr298 or Tyr303, on the His-tagged protein; 5-9 nt visible in the structure
notes: AbiA, plasmid-encoded abortive infection RT-like polymerase of Lactococcus lactis, full length, 628 amino acid residues; synthetic gene in pET28a-SUMO; The SUMO tag is not visible in the structure; also called full-length SUMO-tagged AbiA; AbiA with an uncleaved SUMO tag; source: E. coli BL21 STAR, purified (HisTrap HP, Superdex 200); not shown: His6, N-terminal, kept; SUMO, N-terminal, kept
B2: AbiA L515W (enzyme, L. lactis, UniProt Q48596 1-628, looked up)
chain: T1 sequence (Q48596 1-628) with L515W
notes: AbiA of Lactococcus lactis, 628 residues, with a tryptophan substitution in the dimer interface; The methods say point substitutions were introduced into the N-terminal His6-tag construct; Expression and purification of this variant are not described separately
B3: AbiA Y80W/T269W/L515W (enzyme, L. lactis, UniProt Q48596 1-628, looked up)
chain: T1 sequence (Q48596 1-628) with Y80W, T269W, L515W
notes: AbiA of Lactococcus lactis, 628 residues, with tryptophan substitutions in the dimer interface; The methods say point substitutions were introduced into the N-terminal His6-tag construct; Expression and purification of this variant are not described separately
B4: AbiA L162W/R601A (enzyme, L. lactis, UniProt Q48596 1-628, looked up)
chain: T1 sequence (Q48596 1-628) with L162W, R601A
notes: AbiA of Lactococcus lactis, 628 residues, with substitutions in the dimer interface; The methods say point substitutions were introduced into the N-terminal His6-tag construct; Expression and purification of this variant are not described separately
B5: AbiA Y80W/T269W (enzyme, L. lactis, UniProt Q48596 1-628, looked up)
chain: T1 sequence (Q48596 1-628) with Y80W, T269W
notes: as for B3
B6: full-length untagged AbiA (enzyme, L. lactis, UniProt Q48596 1-628, looked up)
chain: T1 sequence (Q48596 1-628)
modifications: co-purified ssDNA covalently attached (priming at Tyr298 or Tyr303)
notes: AbiA, plasmid-encoded abortive infection RT-like polymerase of Lactococcus lactis, full length, 628 amino acid residues; The results call it 'untagged'; The only SUMO-free construct in the methods carries an N-terminal His6-tag, and the SUMO tag could not be cleaved, so this is probably His6-AbiA; also called AbiA without SUMO tag; AbiA without a tag; source: E. coli BL21 STAR, purified (HisTrap …)

Assays:
AbiA = molecular target: T1, AbiA; test: extension of […]-labelled co-purified covalently attached DNA, urea-PAGE autoradiography; assay type: biochemical; settings: 200 uM single dNTP, 50 mM Tris pH 7.0, 250 mM NaCl, 10 mM MgCl2, 5 mM DTT, 37 C; DNA pre-labelled with alpha-33P-dATP; template-independent, protein-primed
[1] = molecular target: the molecule itself; test: SEC-MALS; Superdex 200 Increase 10/300 GL; 25 mM Tris pH 7.0, 400 mM NaCl, 2% glycerol, 1 mM DTT; 0.75 ml/min; self-association of AbiA variants
[2] = molecular target: the molecule itself; test: SEC-MALS; GF/MALS of tryptophan substitution variants of the dimer interface; data not shown

Molecule | stoichiometry N [2] | further results
Nc1ncnc2c1ncn2[C@H]1C[C@H](O)[C@@H](COP(=O)(O)OP(=O)(O)OP(=O)(O)O)O1 [dATP] | – | extension of 33P-labelled co-purified covalently attached DNA, urea-PAGE autorad (AbiA): dATP and dCTP were incorporated with efficiencies similar to those observed with dNTP mix
Nc1ccn([C@H]2C[C@H](O)[C@@H](COP(=O)(O)OP(=O)(O)OP(=O)(O)O)O2)c(=O)n1 [dCTP] | – | extension of 33P-labelled co-purified covalently attached DNA, urea-PAGE autorad (AbiA): dATP and dCTP were incorporated with efficiencies similar to those observed with dNTP mix
B1 | – | stoichiometry N [1]: 2
B2 | 2 | –
B3 | 2 | –
B4 | 2 | –
B5 | 2 | –
B6 | – | stoichiometry N [1]: 2
